Laboratory results from patent publication US20060171955A1.

What was measured:
monoclonal antibody 1129 [1] = assay: competitive ELISA; soluble 248/404 F inhibits 1129 binding to plate-adsorbed 248/404 F
monoclonal antibody 1129 [2] = assay: competitive ELISA; soluble 248/404 F inhibits 1129 binding to plate-adsorbed A2 F
monoclonal antibody 1129 [3] = assay: competitive ELISA; soluble A2 F inhibits 1129 binding to plate-adsorbed A2 F
monoclonal antibody 1129 [4] = assay: competitive ELISA; soluble A2 F inhibits 1129 binding to plate-adsorbed 248/404 F

purified RSV fusion (F) protein from the cold-passaged, temperature-sensitive mutant A2 strain cpts-248/404 (PFP-3) (from UniProt P03420 26-574)
Percent Inhibition (monoclonal antibody 1129 [1]): 95.9% | Percent Inhibition (monoclonal antibody 1129 [2]): 94.7%

purified RSV fusion (F) protein from the parent A2 strain (PFP-2) (from UniProt P03420 26-574)
Percent Inhibition (monoclonal antibody 1129 [3]): > 99% | Percent Inhibition (monoclonal antibody 1129 [4]): > 99%
